In patent US20210388081A1 (Memorial Sloan Kettering, published 2021):

Key:
[1] = molecular target: T1, FcRL1, overexpressed on 3T3 cells (UniProt Q96LA6 17-429, limits assumed); experiment: phage clone on 3T3-FcRL1 cells
T1 construct: whole, on cells
T1 sequence (looked up): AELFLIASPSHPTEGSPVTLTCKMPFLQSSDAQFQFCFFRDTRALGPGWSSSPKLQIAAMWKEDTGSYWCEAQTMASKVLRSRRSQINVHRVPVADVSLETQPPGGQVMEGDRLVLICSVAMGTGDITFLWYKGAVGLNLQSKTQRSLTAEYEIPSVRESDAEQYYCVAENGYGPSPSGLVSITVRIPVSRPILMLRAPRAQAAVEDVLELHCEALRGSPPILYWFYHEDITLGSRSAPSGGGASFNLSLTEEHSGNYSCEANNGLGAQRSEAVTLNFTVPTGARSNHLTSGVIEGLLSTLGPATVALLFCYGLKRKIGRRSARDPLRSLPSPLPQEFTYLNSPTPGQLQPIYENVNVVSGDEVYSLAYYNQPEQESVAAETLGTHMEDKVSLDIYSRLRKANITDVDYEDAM

[2] = molecular target: T2, FcRL4, overexpressed on 3T3 cells (UniProt Q96PJ5 20-515, limits assumed); experiment: phage clone on 3T3-FcRL4 cells
T2 construct: whole, on cells
T2 sequence (looked up): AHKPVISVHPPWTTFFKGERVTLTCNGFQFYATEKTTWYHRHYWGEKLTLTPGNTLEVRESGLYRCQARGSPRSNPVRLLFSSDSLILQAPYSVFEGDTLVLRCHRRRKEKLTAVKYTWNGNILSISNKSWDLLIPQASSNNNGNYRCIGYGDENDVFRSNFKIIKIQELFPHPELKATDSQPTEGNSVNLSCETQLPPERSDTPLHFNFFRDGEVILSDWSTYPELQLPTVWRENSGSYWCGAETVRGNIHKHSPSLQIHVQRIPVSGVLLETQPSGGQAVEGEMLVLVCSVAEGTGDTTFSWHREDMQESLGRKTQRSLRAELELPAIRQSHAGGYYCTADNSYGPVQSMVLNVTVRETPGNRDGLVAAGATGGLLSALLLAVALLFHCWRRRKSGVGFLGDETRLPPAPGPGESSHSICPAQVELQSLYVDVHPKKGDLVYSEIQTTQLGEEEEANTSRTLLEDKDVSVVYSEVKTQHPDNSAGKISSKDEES

[3] = molecular target: T3, FcRL6, overexpressed on 3T3 cells (UniProt Q6DN72 20-434, limits assumed); experiment: phage clone on 3T3-FcRL6 cells
T3 construct: whole, on cells
T3 sequence (looked up): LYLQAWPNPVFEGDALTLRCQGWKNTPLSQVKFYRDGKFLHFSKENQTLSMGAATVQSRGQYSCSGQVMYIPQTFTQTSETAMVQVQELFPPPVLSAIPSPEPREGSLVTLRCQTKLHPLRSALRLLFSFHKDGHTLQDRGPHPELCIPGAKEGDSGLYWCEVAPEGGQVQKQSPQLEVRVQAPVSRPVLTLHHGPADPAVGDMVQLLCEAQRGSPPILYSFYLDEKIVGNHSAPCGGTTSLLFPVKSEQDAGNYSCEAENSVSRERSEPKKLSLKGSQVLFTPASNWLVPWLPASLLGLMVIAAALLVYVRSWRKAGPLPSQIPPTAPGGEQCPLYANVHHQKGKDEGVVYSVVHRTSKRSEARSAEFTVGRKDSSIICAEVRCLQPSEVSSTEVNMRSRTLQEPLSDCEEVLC

[4] = molecular target: T4, FcRL3, overexpressed on 3T3 cells (UniProt Q96P31 18-734, limits assumed); experiment: phage clone on 3T3-FcRL3 cells
T4 construct: whole, on cells
T4 sequence (looked up): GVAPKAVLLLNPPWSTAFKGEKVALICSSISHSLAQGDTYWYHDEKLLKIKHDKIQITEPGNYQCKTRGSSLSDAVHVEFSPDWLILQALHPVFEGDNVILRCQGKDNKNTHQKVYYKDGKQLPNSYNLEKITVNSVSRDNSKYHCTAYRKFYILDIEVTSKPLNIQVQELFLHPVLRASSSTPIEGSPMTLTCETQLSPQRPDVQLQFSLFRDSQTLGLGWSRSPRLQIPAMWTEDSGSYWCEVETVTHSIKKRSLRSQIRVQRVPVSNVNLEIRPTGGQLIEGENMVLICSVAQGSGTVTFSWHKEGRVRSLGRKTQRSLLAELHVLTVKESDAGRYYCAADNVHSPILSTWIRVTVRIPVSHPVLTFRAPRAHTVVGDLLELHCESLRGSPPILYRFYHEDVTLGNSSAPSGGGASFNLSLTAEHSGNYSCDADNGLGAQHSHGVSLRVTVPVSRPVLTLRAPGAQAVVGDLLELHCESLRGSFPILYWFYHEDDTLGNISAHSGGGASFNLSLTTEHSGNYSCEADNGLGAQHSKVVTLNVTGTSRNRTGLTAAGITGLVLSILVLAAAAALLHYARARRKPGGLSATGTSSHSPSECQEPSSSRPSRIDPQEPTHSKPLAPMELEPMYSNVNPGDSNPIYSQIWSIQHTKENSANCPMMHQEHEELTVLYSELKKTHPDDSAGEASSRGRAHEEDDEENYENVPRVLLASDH

Measured: binding result

B1: ET200-010 (scFv)
scFv: QSALTQPASVSGSPGQSITISCTGTSSDVGGYNSVSWYQQHPGKAPRLMIYDVSNRPSGVSNRFSGSKSGNTASLTISGLQAEDEADYYCSSYTSSSTPLVFGTGTKVTVLGSRGGGGSGGGGSGGGGSLEMAQVQLVQSGAEVKKPGASVKVSCKASGYTFTSYGISWVRQAPGQGLEWMGWISAYNGNTNYAQKLQGRVTMTTDTSTSTAYMELRSLRSDDTAVYYCARGAVAYHDWGQGTLVTVSSTSGQAGQHHHHHHGAYPYDVPDYAS
notes: screened as phage clone; entry is VL-linker-VH-His tag-HA tag
no binding: [1] | [2] | [3] | [4]

B2: ET200-009 (scFv)
scFv: QSVLTQPPSASGTPGQTVTISCSGSNSNIGSNYVYWYQQLPGTAPKLLIYRNNQRPSGVPDRFSGSKSGTSASLAISGLRSEDEADYYCAAWDDSLSAYVFGTGTKVTVLGSRGGGGSGGGGSGGGGSLEMAQVQLVQSGAEVKKPGASVKVSCKASGYTFTSYGISWVRQAPGQGLEWMGWISAYNGNTNYAQKLQGRVTMTTDTSTSTAYMELRSLRSDDTAVYYCARSSGNMVSWKDMWGQGTLVTVSSTSGQAGQHHHHHHGAYPYDVPDYAS
notes: as for B1
no binding: [1] | [2] | [3] | [4]

B3: ET200-124 (scFv)
scFv: SYVLTQPPSVSVAPGKTARISCGGNDIGSKSVFWYQQRPGQAPVLVVYDDSDRPSGLPERFSGFNSGNTATLTISRVEAGDEADYYCQVWDSSSDHYVFGTGTKVTVLGSRGGGGSGGGGSGGGGSLEMAQVQLVESGGGLVQPGRSLRLSCAASGFTFDDYAMHWVRQAPGKGLEWVSGISWNSGSIGYADSVKGRFTISRDNAKNSLYLQMNSLRAEDTALYYCAKDITYGSGSYGAFDIWGQGTMVTVSSTSGQAGQHHHHHHGAYPYDVPDYAS
notes: as for B1
no binding: [1] | [2] | [3] | [4]
